Measured values from patent publication US20120156193A1 (IMMUNAS PHARMA, published 2012).
Changes are numbered by the printed parent chain. One block for each binder: values may come before it.

Target: T1, A beta 1-40 oligomer (synthetic A beta1-40, HCl form, 0.1 mg/ml in PBS, incubated at 37 degrees C for one … (UniProt P05067 672-711))
T1 construct: domain: A beta 1-40; Non-fibrous assembly of many copies of the same peptide; also called A beta oligomer
Assay: SPR, Biacore 3000, A beta oligomer on CM5 chip, antibody as analyte
Protocol: The analysis was carried out by Surface Plasmon Resonance (SPR) using Biacore 3000 (GE Healthcare Sciences).

B1: IR-003 antibody (antibody, V domains shown)
VH: QVTLKESGPGILQPSQTLSLTCSFSGFSLSTSGMGVSWIRQPSGKGLEWLAHIYWDDDKRYNPSLKSRLTISKDTSSNQVFLKITSVDTADTATYYCARRGEVRRRGYYAMDYWGQGTSVTVSS
VL: DVVMTQTPLSLPVSLGDQASISCRSSQSLVHSNGNTYLHWYLQKPGQSPKLLIYKVSNRFSGVPDRFSGSGSGTDFTLKISRVEAEDLGVYFCSQSTHVPLTFGAGTKLELK
notes: Mouse monoclonal from a hybridoma (BALB/c); constant regions are not
Kd: 24.5 nM
koff: 0.00232 s⁻¹
kon: 94800 M⁻¹ s⁻¹

B2: IR-148 antibody (antibody, V domains shown)
VH: DVQLVESGGGLVQPGGSRKLSCAASGFTFSSFGMHWVRQAPEKGLEWVAYISSGSSTIYYADTVKGRFTISRDNPKNTLFLQMTSLRSEDTAMYYCARDYYGMDYWGQGTSVTVSS
VL: B1 VL
notes: Mouse monoclonal from a hybridoma
Kd: 38.6 nM
koff: 0.000931 s⁻¹
kon: 24100 M⁻¹ s⁻¹

B4: IR-130 antibody (antibody, V domains shown)
VH: EVKLVESGGGLVQPGGSLKLSCATSGFTFSDYYMYWVRQTPEKRLEWVAYISNGGGSTYYPDTVKGRFTISRDNAKNTLYLQMSRLKSEDTAMYYCARGTSYGSSLHYYAMDYWGQGTSVTVSS
VL: B1 VL
notes: as for B2
Kd: 667 nM
koff: 0.11 s⁻¹
kon: 165000 M⁻¹ s⁻¹

More lines, in order of falling Kd, values ahead:

Kd: 43.9 nM
koff: 0.00571 s⁻¹
kon: 130000 M⁻¹ s⁻¹
B3: IR-103 antibody (antibody, V domains shown)
VH: DVQLVESGGGLVQPGGSRKLSCAASGFTFSSFGMHWVRQAPEKGLEWVAYISSGSSTIYYADTVKGRFTISRDNPKNTLFLQMTSLRSEDTAMYYCARSPLLRLQGLAYWGQGTLVTVSA
VL: B1 VL with V3L, L29I, H39E, F92Y, S94F, S96G, T97S, L101P, A105G, L111I
notes: as for B2

Kd: 9.3 nM
koff: 0.00252 s⁻¹
kon: 271000 M⁻¹ s⁻¹
B6: IR-099 antibody (antibody, V domains shown)
VH: DVQLVESGGGLVQPGGSRKLSCAASGFTFSRFGMHWVRQAPEKGLEWVAYISSGRSTIYYADTVKGRFTISRDNPKNTLFLQMTSLRSEDTAMYYCARGGGNYVGAMDYWGQGTSVTVSS
VL: DAVMTQTPLSLPVSLGDQASISCRSSQSLENSNGNTYLNWYLQKPGQSPQLLIYRVSNRFSGVLDRFSGSGSGTDFTLKISRVEAEDLGVYFCLQVTHVPPTFGGGTKLEIK
notes: as for B2

Kd: 7.37 nM
koff: 0.00188 s⁻¹
kon: 255000 M⁻¹ s⁻¹
B5: IR-091 antibody (antibody, V domains shown)
VH: QVTLKESGPGILKPSQTLSLTCSFSGFSLSTSGMGVGWIRQPSGKGLEWLAHIWWDDDKYYNPSLKSQLTISKDTSRNQVFLKITSVDTADTATYYCARRGLRRGDYFDYWGQGTTLTVSS
VL: B1 VL with V3L, L29I, H39E, F92Y, S94F, S96G, T97S
notes: as for B2
